Reference: patent US20230087785A1, “Leucine-Rich Repeat Kinase 2 Allosteric Modulators” (VIB VZW, priority 2020, published 2023)

Columns and labels:
[1] = target: T1, LRRK2(G2019S) (Homo sapiens, UniProt Q5S007, G2019S/M2397T/R50H); experiment: In cellulo phospho-Rab / LRRK2 autophosphorylation assay in HEK293T cells; format: cell-based; conditions: HEK 293T cells co-expressing LRRK2(G2019S), Rab29 and Nb-GFP; for influence on LRRK2 kinase activity compared to the controls: Western blot
T1 construct: SF tag (FLAG + Twin-Strep); expressed in transfected cells; host or cells: HEK 293T
Procedure: (FIGS. 2A-2C) LRRK2(G2019S) and its effector Rab29 were overexpressed together with GFP-fused Nbs (“Fluobody”) in HEK293T cells. A negative control, where no Nb is overexpressed (“No Nb”) is also included. […] In rows labeled “pLRRK2”, LRRK2 pS1292 levels are determined by Western Blot using a site-specific anti-pLRRK2(pS1292) antibody (Abcam, ab203181) (shown at different times of development). In the rows labeled “pRAB10”, endogenous pT72-Rab10 levels are determined by Western Blot using the MJFF/Abcam antibody MJF-R21 (Abcam, ab230261) (shown at different times of development). The three lower rows contain controls of LRRK2 (rat anti-LRRK2, 24D8), Fluobody (rat anti-GFP) and Rab10 (rabbit anti-Rab10) expression levels. (FIG. 2D) Based on the results of panels (FIGS. 2A-2C) the Nbs can be divided into 4 functional groups, with group 1: Nbs that inhibit both LRRK2 autophosphorylation and Rab10 phosphorylation in cells; group 2: Nbs that inhibit only Rab10 phosphorylation; group 3: Nbs that activate LRRK2 kinase activity; group 4: Nbs that have no consistent/clear effect on LRRK2 kinase activity.
To assess the influence of the Nbs on LRRK2 kinase activity we monitored two physiologically and disease relevant activities of LRRK2: phosphorylation of the endogenous substrate Rab10 at position T72 and LRRK2 autophosphorylation at position S1292 [25-30]. […] In our cellular assay we thus co-expressed LRRK2(G2019S), Rab29 and the different Nb-GFP fusions in HEK 293T cells (FIG. 2a-c).
HEK 293T cells were cultured in DMEM (supplemented with 10% Fetal Bovine Serum, […] L-Glutamine and 0.5% Pen/Strep). For the assay, the cells were seeded onto six-well plates and transfected at a confluency of 50-70% with the individual Nb-GFP expression constructs, SF-tagged LRRK2(G2019S) and FLAG-HA Rab29 using a self-made polyethylenimine (PEI)-based transfection reagent. After 48 hrs cells were lysed in lysis buffer [30 mM Tris-HCL (pH7.4), 150 mM NaCl, 0.5% Nonident-P40, complete protease inhibitor cocktail, phosphatase inhibitor cocktail II & III (all Sigma)]. Lysates were cleared by centrifugation at 10,000×g and adjusted to a protein concentration of 1 μg/μl in 1× Laemmli Buffer. Samples were subsequently subjected to SDS PAGE and Western Blot analysis to determine LRRK2 pS1292 and Rab10 T72 phosphorylation levels, as described below. Total LRRK2 and Rab10 levels were determined as a reference.
For western blot analysis, protein samples were separated by SDS-PAGE using NuPAGE 10% Bis-Tris gels (Invitrogen) and transferred onto PVDF membranes (Thermo Fisher). To allow simultaneous probing for LRRK2 on the one hand and Rab and the Nb-GFP fusions on the other hand, membranes were cut horizontally at the 140 kDa MW marker band. After blocking non-specific binding sites with 5% non-fat dry milk in TBST (1 h, RT) (25 mM Tris, pH 7.4, 150 mM NaCl, 0.1% Tween-20), membranes were incubated overnight at 4° C. with primary antibodies at dilutions specified below. Phospho-specific antibodies were diluted in TBST/5% BSA (Roth GmbH). Non-phospho-specific antibodies were diluted in TBST/5% non-fat dry milk powder (BioRad). Phospho-Rab10 levels were determined by the site-specific rabbit monoclonal antibody anti-pRAB10([…]) (Abcam, ab230261) and LRRK2 autophosphorylation was determined by the site-specific rabbit monoclonal antibody anti-pLRRK2(pS1292) (Abcam, ab203181), both at a dilution of 1:2,000. Total LRRK2 levels were determined by the in-house rat monoclonal antibody anti-pan-LRRK2 (clone 24D8; 1:10,000). Total Rab10 levels were determined by the rabbit monoclonal antibody anti-RAB10/ERP13424 (Abcam, ab181367) at a dilution of 1:5,000. Nb-GFP fusion proteins were detected using the rat monoclonal antibody anti-GFP (clone 3H9, ChromoTec) at a dilution of 1:2,000. For detection, goat anti-rat IgG or anti-rabbit IgG HRP-coupled secondary antibodies (Jackson ImmunoResearch) were used at a dilution of 1:15,000 in TBST/5% non-fat dry milk powder. […]

[2] = target: T2, LRRK2 Roc domain construct (human, UniProt Q5S007 1329-1520); experiment: ELISA, antigen coated on the plate, purified Nb detected via its EPEA tag
T2 construct: not shown: N-terminal His6-tag of pET-28a
T2 sequence: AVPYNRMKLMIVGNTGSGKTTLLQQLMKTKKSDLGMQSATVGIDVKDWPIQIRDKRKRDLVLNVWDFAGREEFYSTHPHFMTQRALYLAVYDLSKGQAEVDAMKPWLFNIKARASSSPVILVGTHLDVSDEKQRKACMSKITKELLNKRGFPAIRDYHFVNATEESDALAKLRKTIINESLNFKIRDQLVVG
Description: (§1) We recombinantly expressed and purified the RocCOR, Roc, COR-B and kinase-WD40 (K-WD40) domain constructs of LRRK2 (FIG. 7). Subsequently, we performed an ELISA in which all these domain constructs were coated in parallel next to each other in the same ELISA plate, and where we subsequently detected binding of the 42 purified Nbs. […] To enrich in Nbs directed against the Roc domain we specifically included a selection step with either Roc-GTPγS or Roc-GDP.

[3] = target: T3, LRRK2 RocCOR domain construct (human, UniProt Q5S007 1334-1840); experiment: as above
T3 construct: A second construct (residues 1293-1840, N-terminal His6-MBP) was used in certain screening experiments; not shown: N-terminal Twin-Strep-tag; C-terminal His10-tag
T3 sequence: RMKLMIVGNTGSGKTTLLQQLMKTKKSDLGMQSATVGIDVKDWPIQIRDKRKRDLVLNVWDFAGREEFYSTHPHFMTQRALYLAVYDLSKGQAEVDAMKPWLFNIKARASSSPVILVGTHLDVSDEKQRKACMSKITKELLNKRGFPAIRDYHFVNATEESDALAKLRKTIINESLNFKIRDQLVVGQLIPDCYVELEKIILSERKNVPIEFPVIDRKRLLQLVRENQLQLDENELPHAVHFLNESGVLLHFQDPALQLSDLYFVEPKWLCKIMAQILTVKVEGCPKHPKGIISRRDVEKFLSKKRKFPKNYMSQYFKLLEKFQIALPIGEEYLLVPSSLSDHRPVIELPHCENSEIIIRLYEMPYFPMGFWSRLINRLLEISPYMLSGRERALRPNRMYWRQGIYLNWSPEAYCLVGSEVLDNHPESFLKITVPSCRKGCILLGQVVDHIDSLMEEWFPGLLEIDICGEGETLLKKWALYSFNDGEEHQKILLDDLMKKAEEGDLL
Description: as §1

[4] = target: T4, LRRK2 COR-B construct (C-terminal part of the COR domain), His6-MBP tagged (human, UniProt Q5S007 1672-1840); experiment: as above
T4 construct: also called (MBP-)COR-B; not shown: N-terminal His6-MBP-tag of pDEST-566
Description: as §1

T1 sequence (Q5S007 whole entry R50H/G2019S/M2397T): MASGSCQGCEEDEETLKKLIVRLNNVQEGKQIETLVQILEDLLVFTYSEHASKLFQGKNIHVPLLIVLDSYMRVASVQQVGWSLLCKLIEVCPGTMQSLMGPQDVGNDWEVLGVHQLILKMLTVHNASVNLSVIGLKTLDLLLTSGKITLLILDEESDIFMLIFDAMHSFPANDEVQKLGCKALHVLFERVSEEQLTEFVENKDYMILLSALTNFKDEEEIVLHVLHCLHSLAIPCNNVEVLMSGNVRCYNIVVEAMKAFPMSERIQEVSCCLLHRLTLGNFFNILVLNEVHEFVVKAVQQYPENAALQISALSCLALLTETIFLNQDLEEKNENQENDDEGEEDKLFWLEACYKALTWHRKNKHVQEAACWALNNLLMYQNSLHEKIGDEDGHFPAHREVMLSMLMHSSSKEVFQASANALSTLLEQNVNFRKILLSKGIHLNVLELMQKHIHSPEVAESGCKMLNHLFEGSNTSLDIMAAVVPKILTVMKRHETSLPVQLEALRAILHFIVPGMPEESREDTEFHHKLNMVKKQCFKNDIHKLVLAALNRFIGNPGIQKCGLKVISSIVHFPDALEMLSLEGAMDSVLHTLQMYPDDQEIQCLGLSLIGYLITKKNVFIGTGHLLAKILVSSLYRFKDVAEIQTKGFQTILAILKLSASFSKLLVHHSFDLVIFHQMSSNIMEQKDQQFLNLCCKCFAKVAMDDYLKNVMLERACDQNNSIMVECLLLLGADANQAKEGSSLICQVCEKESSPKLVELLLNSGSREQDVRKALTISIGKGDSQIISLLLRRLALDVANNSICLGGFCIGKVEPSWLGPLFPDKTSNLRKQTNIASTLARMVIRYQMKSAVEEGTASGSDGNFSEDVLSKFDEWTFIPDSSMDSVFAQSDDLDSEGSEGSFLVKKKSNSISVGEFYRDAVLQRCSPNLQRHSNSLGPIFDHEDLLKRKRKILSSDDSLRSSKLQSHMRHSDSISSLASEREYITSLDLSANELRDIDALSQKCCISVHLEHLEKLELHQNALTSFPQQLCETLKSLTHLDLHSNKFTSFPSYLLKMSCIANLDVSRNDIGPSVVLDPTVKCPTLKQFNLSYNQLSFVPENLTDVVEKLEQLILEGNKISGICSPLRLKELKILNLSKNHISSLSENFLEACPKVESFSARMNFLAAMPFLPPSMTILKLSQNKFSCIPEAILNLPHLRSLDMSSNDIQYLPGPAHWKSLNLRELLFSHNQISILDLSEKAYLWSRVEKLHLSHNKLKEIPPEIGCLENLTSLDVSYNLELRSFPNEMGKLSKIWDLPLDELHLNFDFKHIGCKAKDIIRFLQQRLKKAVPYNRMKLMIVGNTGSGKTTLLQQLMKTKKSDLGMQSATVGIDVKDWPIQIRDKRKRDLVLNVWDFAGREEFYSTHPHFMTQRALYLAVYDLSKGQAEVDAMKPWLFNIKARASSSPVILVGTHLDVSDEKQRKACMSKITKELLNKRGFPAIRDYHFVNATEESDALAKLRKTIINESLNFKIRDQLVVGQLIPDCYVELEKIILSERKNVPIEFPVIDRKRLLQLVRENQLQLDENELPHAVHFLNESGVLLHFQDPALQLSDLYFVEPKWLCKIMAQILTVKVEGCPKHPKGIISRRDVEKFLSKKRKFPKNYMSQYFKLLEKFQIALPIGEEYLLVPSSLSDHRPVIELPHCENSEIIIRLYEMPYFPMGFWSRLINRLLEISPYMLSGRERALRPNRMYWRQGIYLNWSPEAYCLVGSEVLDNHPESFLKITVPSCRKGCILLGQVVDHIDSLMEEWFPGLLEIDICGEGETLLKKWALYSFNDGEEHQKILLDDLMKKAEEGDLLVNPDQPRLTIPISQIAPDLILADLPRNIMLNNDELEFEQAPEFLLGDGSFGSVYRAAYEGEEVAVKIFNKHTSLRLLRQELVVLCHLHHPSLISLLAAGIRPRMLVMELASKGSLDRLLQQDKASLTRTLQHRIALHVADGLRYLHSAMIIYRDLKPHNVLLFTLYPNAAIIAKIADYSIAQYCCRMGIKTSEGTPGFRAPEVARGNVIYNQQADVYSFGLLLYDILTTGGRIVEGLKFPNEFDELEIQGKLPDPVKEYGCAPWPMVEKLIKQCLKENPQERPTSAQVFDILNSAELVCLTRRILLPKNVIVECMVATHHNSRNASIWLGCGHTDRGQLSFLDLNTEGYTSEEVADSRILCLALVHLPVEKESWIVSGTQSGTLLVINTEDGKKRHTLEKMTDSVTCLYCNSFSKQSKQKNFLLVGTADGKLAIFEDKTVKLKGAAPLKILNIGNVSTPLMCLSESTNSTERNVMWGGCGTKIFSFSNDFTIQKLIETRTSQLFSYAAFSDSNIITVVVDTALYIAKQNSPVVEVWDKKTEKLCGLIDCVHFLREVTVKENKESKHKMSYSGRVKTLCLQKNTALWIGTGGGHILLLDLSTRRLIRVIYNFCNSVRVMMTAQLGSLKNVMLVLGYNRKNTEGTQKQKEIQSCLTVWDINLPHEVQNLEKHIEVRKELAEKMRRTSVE

B1: Nb3: LRRK2-specific Nanobody, SEQ ID NO: 11 (protein)
VHH: MAQVQLVESGGGLVQPGGSLRLSCAASGSIFRRNAMGWYRQVTGKERELVAGITSGGYTNYRDFVKGRFTISRDNAKNTVYLQMNNLKPEDTAVYYCNLLSEMLQTVWGQGTQVTVSS
modifications: Nanobody CA12614
- LRRK2 autophosphorylation at position S1292 [1]: somewhat stronger inhibitory effect towards LRRK2 autophosphorylation
- influence on LRRK2 kinase activity compared to the controls [1]: no influence on LRRK2 kinase activity

B2: Nb13: LRRK2-specific Nanobody, SEQ ID NO: 16 (protein)
VHH: MAQVQLVESGGGLVQPGGSLRLSCAASGSGFSIYAMGWARQAPGRQRELVAAITSGGSTNYADSVKGRFTISRDNAKNTVYLQMNSLKPEDTAVYYCNADITVVAGSTYDYWGQGTQVTVSS
modifications: Nanobody CA13602
- influence on LRRK2 kinase activity compared to the controls [1]: no influence on LRRK2 kinase activity

B3: Nb31: LRRK2-specific Nanobody, SEQ ID NO: 13 (protein)
VHH: MAQVQLVESGGGLVQAGGSLRLSCATSGLTFGTYAMAWFRQAAEKEREFVAFISGRGGYRDYADSVKGRLTIFRDNAKNNAKNTVYLQMNNLKPEDTAVYYCAARQGSPVRSKEEYNNWGQGTQVTVSS
modifications: Nanobody CA13620
- influence on LRRK2 kinase activity compared to the controls [1]: no influence on LRRK2 kinase activity

B4: Nb9 (CA13598) (VHH)
VHH: QVQLVESGGGLVQPGGSLRLSCAASGSIFSINAMGWYRQAPGKQRELVAAITSGGRTNYADSVRGRFTISRDHAKNTVYLQMNSLKPEDTAVYYCNAGDWQTMYDYWGQGTQVTVSS
- binding result [2]: no binding (tested: not given)
- binding result [3]: no binding (tested: not given)
- binding result [4]: no binding (tested: not given)

B5: Nb28: LRRK2-specific Nanobody, SEQ ID NO: 18 (protein)
VHH: MAQVQLVESGGGLVQAGGSLRLSCAASGIIFHWYDMDWYRQAPGKQRELVATITTGGRADYADFVKGRFSISRDNAKTTVYLQMNSLKPEDTAVYYCSFQDHVLRRWGQGTQVTVSS
modifications: Nanobody CA13617
- influence on LRRK2 kinase activity compared to the controls [1]: significant increase of LRRK2 kinase activity

B6: Nb10: LRRK2-specific Nanobody, SEQ ID NO: 15 (protein)
VHH: MAQVQLVESGGGLVQPGGSLRLSCAASGSIFSIYAMGWYRQAPGKQRELVAAITSGGDTNYADSVKGRFTISRDNAKNTVYLQMNSLKPEDTAVYYCNADHTPAGTFQTFDYWGQGTQVTVSS
modifications: Nanobody CA13599
- influence on LRRK2 kinase activity compared to the controls [1]: no influence on LRRK2 kinase activity

B7: Nb41: LRRK2-specific Nanobody, SEQ ID NO: 12 (protein)
VHH: MAQVQLVESGGGLVQAGGSLRLSCEASVRTFSFYSMGWFRQAPGKEREFVAAIRWTAGSTSYADIVKGRFTISRDNGKNTVVLQMNSLEPEDTGVYYCAAQRGYLVEAASREYDYWGQGTQVTVSS
modifications: Nanobody CA14136
- LRRK2 autophosphorylation at position S1292 [1]: inhibiting S1292 phosphorylation at a lesser extent
- influence on LRRK2 kinase activity compared to the controls [1]: strongly decreased LRRK2 autophosphorylation and/or Rab10 phosphorylation
- Rab10 phosphorylation at position T72 ([1]; endogenous Rab10): inhibit Rab10 phosphorylation

B8: Nb37: LRRK2-specific Nanobody, SEQ ID NO: 14 (protein)
VHH: MAQVQLVESGGGLVQPGGSLRLSCAASGSVFSTNTMAWFRQAPGKQREWVGGITPGGFTNYINSVKGRFTISRDNANNTIYLQMSSLRPEDTAVYYCNTLSRMALWGQGTQVTVSS
modifications: Nanobody CA14131
- LRRK2 autophosphorylation at position S1292 [1]: somewhat stronger inhibitory effect towards LRRK2 autophosphorylation
- influence on LRRK2 kinase activity compared to the controls [1]: no influence on LRRK2 kinase activity

B9: Nb9: LRRK2-specific Nanobody, SEQ ID NO: 17 (protein)
VHH: MAQVQLVESGGGLVQPGGSLRLSCAASGSIFSINAMGWYRQAPGKQRELVAAITSGGRTNYADSVRGRFTISRDHAKNTVYLQMNSLKPEDTAVYYCNAGDWQTMYDYWGQGTQVTVSS
modifications: Nanobody CA13598
- influence on LRRK2 kinase activity compared to the controls [1]: no influence on LRRK2 kinase activity
